Laboratory results taken from patent US20250043022A1 (JIANGSU HENGRUI PHARMACEUTICALS, published 2025).
Substitutions are numbered along the chain they refer to.

B1: 43-F4 (bispecific antibody)
heavy: not shown
light: DIQMTQSPSSLSASVGDRVTITCKASQNVHTSVAWYQQKPGKSPKLLIYSASNRYSGVPSRFSGSGSGTDFTLTISSLQPEDVATYYCQQYSSYPLTFGQGTKLEIKRTVAAPSVFIFPPSDEQLKSGTASVVCLLNNFYPREAKVQWKVDNALQSGNSQESVTEQDSKDSTYSLSSTLTLSKADYEKHKVYACEVTHQGLSSPVTKSFNRGEC
notes: PSMA x CD3, Format 4
B2: 15-F4 (bispecific antibody)
heavy: not shown
light: B1 light with N28G, H30D, S32A, S50W, N53T, Y55H, S56T, S60D, S93R
notes: PSMA x CD3, Format 4
B3: 46-F4 (bispecific antibody)
heavy: not shown
light: DIQMTQSPSSLSASVGDRVTITCKASQSVGTAVAWYQQKPGKAPKLLIYSASSRYTGVPSRFSGSGSGTDFTLTISSLQPEDFADYFCHQYSSYPLTFGGGTKVEIKRTVAAPSVFIFPPSDEQLKSGTASVVCLLNNFYPREAKVQWKVDNALQSGNSQESVTEQDSKDSTYSLSSTLTLSKADYEKHKVYACEVTHQGLSSPVTKSFNRGEC
notes: PSMA x CD3, Format 4
B4: 43-F3 (bispecific antibody)
heavy: not shown
light 1: B1 light
light 2: not shown
notes: PSMA x CD3, Format 3
B5: 15-F2 (bispecific antibody)
heavy 1: not shown
light 1: B1 light with N28G, H30D, S32A, S50W, N53T, Y55H, S56T, S60D, S93R
heavy 2: not shown
light 2: not shown
notes: PSMA x CD3, Format 2
B6: 46-F1 (bispecific antibody)
heavy 1: not shown
light 1: B3 light
heavy 2: not shown
light 2: not shown
notes: PSMA x CD3, Format 1
B7: 46-F2 (bispecific antibody)
heavy 1: not shown
light 1: B3 light
heavy 2: not shown
light 2: not shown
notes: PSMA x CD3, Format 2
B8: 31-F1 (bispecific antibody)
heavy 1: not shown
light 1: DIQMTQSPSSLSASVGDRVTITCRASGNIHNYLAWYQQKPGKAPKLLIYNAETLADGVPSRFSGSGSGTDFTLTISSLQPEDFATYYCQHFWSTPPTFGGGTKVEIKRTVAAPSVFIFPPSDEQLKSGTASVVCLLNNFYPREAKVQWKVDNALQSGNSQESVTEQDSKDSTYSLSSTLTLSKADYEKHKVYACEVTHQGLSSPVTKSFNRGEC
heavy 2: not shown
light 2: not shown
notes: PSMA x CD3, Format 1
B9: 27-F4 (bispecific antibody)
heavy: not shown
light: QIVLTQSPDFQSVTPKEKVTIQCSASSSVSYMYWYQQKPDQSPKPWIYRTSNLASGVPSRFSGSGSGTDYTLTINSLEAEDAATYYCQQYHSYPLTFGQGTKLEIKRTVAAPSVFIFPPSDEQLKSGTASVVCLLNNFYPREAKVQWKVDNALQSGNSQESVTEQDSKDSTYSLSSTLTLSKADYEKHKVYACEVTHQGLSSPVTKSFNRGEC
notes: PSMA x CD3, Format 4

Key:
[1] = target: T1, human PSMA on cells (Cho-hPSMA, CHO-K1 cells overexpressing full-length human PSMA) (human, UniProt Q04609 1-750); assay: cell-based or functional assay
[2] = target: T1, human PSMA on cells (Cho-hPSMA, CHO-K1 …); assay: cell ELISA, Cho-hPSMA; antibody at 25 nM
Protocol: (§1) Experiment 2: Cells were cultured and inoculated onto a cell plate using the same method as in Experiment 1. The antibodies were serially diluted, and the antibody solutions were added to the cell plate at 100 μL/well. The plate was incubated at 4° C. for 1 h and then washed. An HRP-Goat Anti-human IgG (H+L) secondary antibody dilution (1:8000) was added to the cell plate at 100 μL/well, and the plate was incubated at 4° C. for 1 h and then washed by centrifugation. After color development with TMB, the reaction was stopped with 0.1 M sulfuric acid, and OD450 values were measured.
(§2) Experiment 4: The binding activity of bispecific antibodies was measured using the method of experiment 2.

[3] = target: T1, human PSMA on cells (Cho-hPSMA, CHO-K1 …); assay: cell ELISA, Cho-hPSMA; antibody at 6.25 nM
Protocol: as §1, §2

[4] = target: T1, human PSMA on cells (Cho-hPSMA, CHO-K1 …); assay: cell ELISA, Cho-hPSMA; antibody at 1.5625 nM
Protocol: as §1, §2

[5] = target: T1, human PSMA on cells (Cho-hPSMA, CHO-K1 …); assay: flow cytometry, Cho-hPSMA; antibody at 4 nM
Protocol: (§3) Experiment 1: Cho-hPSMA was cultured in F12 medium with 10% FBS. The medium to which cells were inoculated was incubated in a 37° C., 5% CO₂ incubator for 2 days, and cells were added to a cell plate at 1×10⁵ cells/well and washed by centrifugation. Antibodies were serially diluted, and the antibody solutions were added to the cell plate at 100 μL/well. The plate was incubated at 4° C. for 1 h and then washed. An AF488-Goat Anti-human IgG Fc fluorescent secondary antibody dilution (1:400) was added to the cell plate at 100 μL/well, and the plate was incubated at 4° C. for 1 h and then washed. PBS was added to the cell plate at 100 μL/well before plate reading.
(§4) Experiment 3: The binding activity of bispecific antibodies was measured using the method of experiment 1.

[6] = target: T1, human PSMA on cells (Cho-hPSMA, CHO-K1 …); assay: flow cytometry, Cho-hPSMA; antibody at 20 nM
Protocol: as §3, §4

[7] = target: T1, human PSMA on cells (Cho-hPSMA, CHO-K1 …); assay: flow cytometry, Cho-hPSMA; antibody at 0.8 nM
Protocol: as §3, §4

[8] = target: T1, human PSMA on cells (Cho-hPSMA, CHO-K1 …); assay: flow cytometry, Cho-hPSMA; antibody at 100 nM
Protocol: as §3, §4

[9] = target: T1, human PSMA on cells (Cho-hPSMA, CHO-K1 …); assay: flow cytometry, Cho-hPSMA; antibody at 4 µg/mL
[10] = target: T1, human PSMA on cells (Cho-hPSMA, CHO-K1 …); assay: flow cytometry, Cho-hPSMA; antibody at 20 µg/mL
[11] = target: T1, human PSMA on cells (Cho-hPSMA, CHO-K1 …); assay: flow cytometry, Cho-hPSMA; antibody at 0.8 µg/mL
[12] = target: T1, human PSMA on cells (Cho-hPSMA, CHO-K1 …); assay: flow cytometry, Cho-hPSMA; antibody at 100 µg/mL
[13] = target: T2, human PSMA antigen (Acro, Cat. No. PSA-H52H3; Lys44-Ala750) (human, UniProt Q04609 44-750); assay: SPR (Biacore T200, 25 C), antibody captured on Protein A, 1:1 model
T2 construct: range 44-750
Protocol: Experiment 5: Antibodies were affinity-captured using a Protein A biosensor chip, and human PSMA was then allowed to flow over the chip surface. The association and dissociation curves were obtained by real-time detection of reaction signals using a Biacore T200 instrument at 25° C. After the dissociation in each experimental cycle was complete, the biosensor chip was regenerated by washing with Glycine 1.5. Data fitting was performed using a 1:1 Model. The human PSMA antigen was purchased from Acro (Cat. No. PSA-H52H3; Lys44-Ala750), and the hCD3D&CD3E complex antigen was purchased from Sino Biological (Cat. No. CT038-H2508H).

T2 sequence (Q04609 44-750 limits assumed): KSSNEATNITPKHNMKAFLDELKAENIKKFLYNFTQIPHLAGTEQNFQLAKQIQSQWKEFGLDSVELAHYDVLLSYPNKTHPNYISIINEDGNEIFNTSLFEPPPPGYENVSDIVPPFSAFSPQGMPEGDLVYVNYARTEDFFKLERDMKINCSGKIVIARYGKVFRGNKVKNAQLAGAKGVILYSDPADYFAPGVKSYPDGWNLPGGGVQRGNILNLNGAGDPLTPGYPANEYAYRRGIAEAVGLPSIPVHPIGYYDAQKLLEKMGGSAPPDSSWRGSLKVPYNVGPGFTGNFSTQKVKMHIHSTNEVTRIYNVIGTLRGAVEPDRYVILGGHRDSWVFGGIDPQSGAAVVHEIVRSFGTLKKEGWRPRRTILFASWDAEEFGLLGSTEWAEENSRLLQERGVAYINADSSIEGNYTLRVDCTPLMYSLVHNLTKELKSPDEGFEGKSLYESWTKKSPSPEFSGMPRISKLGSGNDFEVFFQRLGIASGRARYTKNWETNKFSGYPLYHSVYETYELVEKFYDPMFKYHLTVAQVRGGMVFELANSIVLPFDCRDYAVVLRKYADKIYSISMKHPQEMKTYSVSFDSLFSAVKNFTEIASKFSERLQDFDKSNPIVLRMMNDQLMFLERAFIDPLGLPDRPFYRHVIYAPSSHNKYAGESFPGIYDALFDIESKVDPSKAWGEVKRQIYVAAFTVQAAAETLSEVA
T1 sequence (Q04609 whole entry): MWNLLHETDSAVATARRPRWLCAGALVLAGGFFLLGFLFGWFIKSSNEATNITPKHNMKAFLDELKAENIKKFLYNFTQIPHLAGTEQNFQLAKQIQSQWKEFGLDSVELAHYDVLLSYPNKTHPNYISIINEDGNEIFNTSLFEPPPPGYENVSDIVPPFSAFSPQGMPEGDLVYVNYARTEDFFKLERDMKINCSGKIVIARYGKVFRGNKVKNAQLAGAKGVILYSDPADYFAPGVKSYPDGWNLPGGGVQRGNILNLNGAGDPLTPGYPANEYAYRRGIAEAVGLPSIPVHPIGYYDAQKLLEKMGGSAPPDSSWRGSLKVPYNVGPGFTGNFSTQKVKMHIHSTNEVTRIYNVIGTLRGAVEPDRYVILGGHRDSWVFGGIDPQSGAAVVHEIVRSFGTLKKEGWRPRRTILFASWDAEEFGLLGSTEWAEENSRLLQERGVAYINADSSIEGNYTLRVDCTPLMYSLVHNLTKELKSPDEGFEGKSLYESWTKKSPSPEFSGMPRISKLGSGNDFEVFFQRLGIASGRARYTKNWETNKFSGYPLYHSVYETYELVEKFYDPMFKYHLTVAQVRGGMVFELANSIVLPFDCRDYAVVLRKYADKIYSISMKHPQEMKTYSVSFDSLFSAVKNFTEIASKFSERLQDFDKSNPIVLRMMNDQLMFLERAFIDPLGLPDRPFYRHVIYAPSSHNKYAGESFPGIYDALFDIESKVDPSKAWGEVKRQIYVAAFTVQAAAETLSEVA

Binder	cytotoxic activity against Lncap, EC50 [1]	cytotoxic activity against Lncap, Maximum lysis rate % [1]	absorbance [2]	absorbance [3]	absorbance [4]	fluorescence intensity [5]	fluorescence intensity [6]	fluorescence intensity [7]	fluorescence intensity [8]	other results
B1	6.21 pM	48%	1.04 OD450	0.527 OD450	0.254 OD450	–	–	–	–	–
B2	9.63 pM	63.2%	–	–	–	22000	31400	8280	32200	–
B3	2.85 pM	63.5%	–	–	–	18700	20800	9490	21300	–
B4	7.39 pM	49.5%	0.721 OD450	0.441 OD450	0.227 OD450	–	–	–	–	–
B5	–	–	–	–	–	27800	30700	15000	26900	–
B6	–	–	–	–	–	12300	28600	3930	31600	–
B7	–	–	–	–	–	19400	23100	8330	23000	–
B8	–	–	–	–	–	–	–	–	–	fluorescence intensity [9]: 7970; fluorescence intensity [10]: 16200; fluorescence intensity [11]: 2520; fluorescence intensity [12]: 16500; Kd [13]: 1860 pM; koff [13]: 1.84e-05 s⁻¹; kon [13]: 9890 M⁻¹ s⁻¹
B9	–	–	1.05 OD450	0.732 OD450	0.419 OD450	–	–	–	–	–
